This data set deals with the molecule itself. The data set can be described thus: SEC; analytical size exclusion on a calibrated Superdex 200 column, buffer B, size standards 43-440 kDa; oligomeric state of the purified complex.

B1: His-CooSF1 complex of Thermoanaerobacter kivui (complex)
chain 1: MSDNYIYSAEKVIDELSRKPGFVDTAIKRWEKRDPKCGFGYKGICCRLCSNGPCRITPTQPVGICGATADTIVARNLLRAIAAGTSCYVHHCRNAANTLLSVAEGKSSYTIKDEEKLKKYAKKMGINTNKDIKRIAYEFATRVLNDLSKPYTEKAELVEKLSLPARVSTWKSLNIMPGGVNEEIIAALTKTSTNLNSDPVDMAVHCLRLGIITGIYGLELTCIMQDILLGSPKIASTYSNFGVIDQGYINLATIGGHQQVVSNRILEMASSKEWVKKAQEAGAKGFKIYGVTCVGQDYELRCASDKNSAFGGYVGNNFTQEYILGTGAIDLVFSEFNCTLPGIEPICKEYLVKQICLDDVAKKVGADLYQFQPEKADEYAAITLDEAIKAYKNRRGKVKIDVPTEKTPAMTGFTEDSIKGALGGSWKLLIDLIVKGDIKGVAGVVGCSNMAAKGHGIYGVELTKELIKRDILVLGNGCVGGNLENAGLYGLESIELAGPKLKEVCRKLNIPPVLNIGPCLSIGRIHIIAEEIAEELKVDVPQIPVVASAPQWLEEQALADGTFGVVLGLDLLLGTPPAVTGSNLITELLTSKLKDMVGARFIIEADPILGADAMESSIMERRKLLNI
chain 2: MDVKSGTKYIFADIKKCLGCRCCEQACADANGNRPYWELLGSGIPLSPNINILYIFLQDKNYPVMAQAVCRQCEDAPCVKICPVKAISVNPDGIKVIDKQRCIGCHSCSIVCPFGAVYIPDKHAVATKCTLCIERKGAEGQPACVEACPNGALQLVDTKEIGREKVKKIVSDTFSNK
notes: as the chain of m1; as the chain of m2; Written as the CooS-CooF1 unit; also called His-CooFS1; source: T. kivui pMU131_His-cooS, purified (Ni2+-NTA, Superdex 200); not shown: 10 x His, N-terminal, kept
For the protein B1, the “stoichiometry N” value was 6.

Values taken from PMC8683389, “The monofunctional CO dehydrogenase CooS is essential for growth of Thermoanaerobacter kivui on carbon monoxide” (Extremophiles, 2021).
